Biological target: human type IIA sPLA2 (human) (UniProt P14555)
Assay: cell-based or functional assay

Sequence of human type IIA sPLA2 (human) (P14555 21-144): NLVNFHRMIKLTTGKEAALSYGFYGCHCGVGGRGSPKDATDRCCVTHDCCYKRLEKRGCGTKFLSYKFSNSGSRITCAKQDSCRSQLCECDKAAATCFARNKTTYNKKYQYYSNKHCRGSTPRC

Substance	IC50 of sPLA2 enzyme inhibition (3H-labelled E. coli membranes as substrate)	Mean % Inhibition at fixed peptide concentration [5 µM]
D65A-PIP (59-67) (peptide)	5.45 µM	–
D65E-PIP (59-67) (peptide)	4.95 µM	–
D65S-PIP (59-67) (peptide)	5.25 µM	–
PIP (59-67) dimer (peptide)	1.19 µM	74.5%

From patent US20050069530A1
